# Assay results: PMC5524822
# Target: HIV-1 Env of virus AT1 with the I371V mutation (HIV-1)
substance,measurement,value
VRC01 (antibody),IC50 of neutralisation of the virus in TZM-bl cells (luciferase reporter),0.0724 µg/mL
